assay: yeast display, Sf9 membrane polyspecificity reagent, FACS + sequencing; frameworks hold sequencing errors
Procedure, shortened: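 Galactose-induced (36–48 hours) yeast carrying a synthetic nanobody display library were exposed to 10% biotinylated, detergent-solubilized Sf9 membrane reagent at 4 °C for 1 hour. FACS followed streptavidin microbead enrichment, using low and high (top ~1%) gates for expression (anti-HA) and reagent binding (streptavidin). Colony PCR, MiSeq 2 × 250 sequencing and CDR-length filtering followed. Labels for polyreactivity reflect the gate of origin.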

Sequence	polyreactivity (PSR sort gate)
QVHLVESRGGLIQAGGSLRLSCAASGSLYVYNALGWYRQAPGKERELVAGITFIGGSTYYADSVKGRFTISRDNAKNTVYLQMNSLKPEDTAVCYSNADVAPGIFYGYDSWGQGTQVTVSS	low polyreactivity
QVHLVESRGGLVQAGGSLRLSCAASGRPFNPYAMGWYRQAPGKEREFVYADSVKGRFTISRDNAKNTVYLQMNSLKPEDTAVYYCAADVYPDTLHPYNYDYWGQGTQVTVSS	low polyreactivity
QVHLVESVGGLVQAGGSLRLSCAASGIIFNDYAMGWYRQAPGKERELVATISWSGGSTYADSVKGRFTISRDNAKNTVYLQMNSLNPEDTAVYYCNADLGSSYDWGQGTQGTVSS	low polyreactivity
QVHLVESVGGLVQAGGSLSLSCAASGLIFDGYAMGWYRQAPGKERDLVAAITWRGGRTYADSVKGRFTISRDNAKNTVYLQMNSLQPEVTAVYYCAVRRWGTSFVEDDYWGQGTQVTVSS	low polyreactivity
QVHLVESWAGLVQAGGSLRLSGAASGTNVMGWYRQAPGKERELDAAISGSGGSTYYADSVKGRFTISRDNAKNTVYLQMNSLKPEDTAVYYCAADSIQYTARPYDYWGQGTQVTVSS	low polyreactivity
QVHLVETGGGLVQAGGSLRLSCAASGSIFVSNAKGWYRQAPGKERELVAAISQSGGSTYYADSVKGRFTISRDYAKNTVYLQMNSLKPEDTAVYYCATPIRSGFRIYDYWGQGTQVTVSS	low polyreactivity
QVHLVETGGGLVQEGGSLRLSCAASGSIFYYNAMGWYRQATGKETELVAAITSSGGSTYADSVKGRFTISRDNAKNTVYLQMNSLKPEDTAVYYCATVAHGLWSGSGYIYAYDYWGQGTQVTVSS	low polyreactivity
QVHLVQSGGGLVQAGGSLRLSCAASGSIYVAYEMGWYRQAPGKERELVAAINFDGTSTYYADSVKGRFTISRDNAKNTVYLQMNSLKPEDTAVYYCNKRVSPTYKGQYDYWGQGTQVTVSS	low polyreactivity
QVHLVVSGGGLVQEGGSLSLRWAASGSTFEYYGMGWYTQAPGKERELVAAITVSGGSTYYADSVKGRFTISRDNEKNTVYLQIHSLKPEDSAVCYCAARPILYWYFRFDYWGQGTQVTVSS	low polyreactivity
QVHRVESGGGLVQAGGSLRLSCAASGIIFARYAMGWYRPAPGKERELVAAITRRAVSTYYADSVKGRFTITRDNAKNSVYLQLISLKPEDTAVYYCAADRASYFTYAYGYWGQGTQVTVSS	high polyreactivity
QVHVVESGGGLVQAGGSLRLSCAASGFTFGNNAIGWYRQAPGKERELVAGISRTGGRTYYADSVKGRFTISRDNAMNTVFLPMNSLKPEDTAVFYCAKAFRGHYWGQGTQVNVSS	high polyreactivity
QVHVVESGGGLVQAGGSLRLSCAASGSSFYHYAMGWYRQAPGKERELVAAISGSGGSTYYADSVKGRFTISRDNAKNTVYLQMNSLKPEDTAVYYCAADTSRYHYTRYFFDSDYWGQGTQVTVSS	low polyreactivity
QVKHVESGGGLVQAGGSLRLTCAASGRTFDRYARGWCRQAPGKDRQLVASISWTGGSPYYADSVKGRFTISRDNAKNTVYLQMNSLKPEVTAVYYCAVRFDYWGQGTQVTVSS	low polyreactivity
QVKLEESGGGLVQAGGSLRLTCAASGSTFTYYAMGWYRQAPGKERELVAAITFRGDSTYYADSVKGRFTFSRDNAKNTVYLQMNSLKPEDTAVYYWGQGTQVTVSS	low polyreactivity
QVKLHESGGGLVQAGDSQRLSCAASGNIFRFTDMGWSRQAPRKERELVAAINAGSTTYYADSVKGRFTISRDNAKNTVYLQKNSLKPEDTAVYYWAVYYLGSGTFGYWGQGAQVTVSS	high polyreactivity
QVKLLESGGGLVQAGGSLRLTCAASGSTFPPYAMGWYRQAPGTESELVAAISYRDTGTYYADSVKGRFTISRDNAKYTVYLQMNSLKPEDTAVYYCATLGYFSASRTDYDYWGQGTQVTVSS	low polyreactivity
QVKLQESGGGLVQAGGSLRLSCAASGNISVTGFMGWYRQAPGKERELVASIGIGGTTYYADSVKGRFSISRDNANNTLYLQMNSLKPEDTAVYYCAARYLYYAYSYWGQGTQVTVSS	low polyreactivity
QVKLVESGAGLVQAGGSLRLSCAASALSFYYYAMGWYRQAPGKERELVASITGGDSTNYADSVKGRFTISRDNAKNTVYLQMNSLKPEETAVYYCADEFYVSSYGYRTYDYYYWGQGTQVTVSS	low polyreactivity
QVKLVESGAGVVQAGGSLRLSCAACGRIFLKYAMGWYRQAPGKERELVAAITSGGGRTSYADSVKGRFTISRDNAKNTVYLQMNSLKPEDTAVYYCNAPAYWRYILRGSAYDYWGQGTQVTVSS	high polyreactivity
QVKLVESGGGFLQAGGRLRLSCAASGIIFYYYAMGRYRQAPGKERELVAAISSGGSTYYSDSVKGRFTISRDNAMNTVYLQMNSLKPEDTAVYYCAADPLYTIDIEYSTYGDYDYWGQGTQVTVSS	low polyreactivity
QVKLVESGGGLVQAGGSLRISSAASGSTFYYYAMGWYRQAPGKESEFVASISSRGTSKYYADSVKGRFTISRDNAKNTVYLQMNSLKPEDTAVYYCAARGWCPTRAYDYWGQGTQVTVSS	high polyreactivity

Sequence	polyreactivity (PSR sort gate)
QVKLVESGGGLVQAGGSLRLSCAASGFIFAHYAMGWYRQAPGKERELVAAIRGGDGSTDYADSVKGRFTISRDNAKNTVYLQMNSLIPEDTAVYYCAKRGKRSRGVGGNYWGQGTQVTVSS	low polyreactivity
QVKLVESGGGLVQAGGSLRLSCAASGFILGYYAMGWYRQAPGKERELVASISRRGGSTYYADSVKGRFTISRDNAKNTVYLQMNSLKPEDTAVYYCAASGYGRYPPYEYWGQGTQVTVSS	high polyreactivity
QVKLVESGGGLVQAGGSLRLSCAASGFTFNGYGMGWYRQAPGKERELVAAISRSSGGTYYADSVKGRFTISRDNAKNTVYLQMNSLKPVDTAVYYCAATGYRTATPSWRYYYWGQGSQVTVSS	high polyreactivity
QVKLVESGGGLVQAGGSLRLSCAASGFTFSRNTRGWYRQAPGKERELVAAIDSTGGSTYYADSEKGRFTISRDNAKNTVYLQMNCLNPEDTAVYYCATVLPDGRVRLRILWGKRVWYDYWGQGTHVTVSS	low polyreactivity
QVKLVESGGGLVQAGGSLRLSCAASGFTIQRYAMGWYRQAPGKERELVAAITSGGSTYYADSVKGRFTISRDNAKNTVYLQMNSLKPEDTAVYYCATRAVWSSWGRRYDSWGQGTQVTVSS	high polyreactivity
QVKLVESGGGLVQAGGSLRLSCAASGITFGYNAMGWDRQAPGKERELVAAITGGSTYYADSVKGRFTISRDNAKNTFYLQMNSLKPEDSAVYYCATDPRRFWVIYYYWGQGTQVTVSS	low polyreactivity
QVKLVESGGGLVQAGGSLRLSCAASGLIFGYNTMGWYRQAPGKERELVAAITRSGGSTYYADSVKGRFTISRDNAKNTVYLQMNSLKPEDTAVYYCAARHRSAYYHLDYWGQGTQVTVSS	high polyreactivity
QVKLVESGGGLVQAGGSLRLSCAASGRIFGYYDMGLYRQAPGKDRELVAAISWNGGSTSYADSVKGRFTISRDNAKNTVYLQMNSLKPEDTAVYYCAAETQYDGYVGSFYYWGQGTQVTVSS	low polyreactivity
QVKLVESGGGLVQAGGSLRLSCAASGRIFYYNAMGWYRQAPGKERELVSAIRVRGGSTYYADSVKGRFTISRDNAKNTVYLQMNSLNPEDTAVYYCNSSDYKISATNAVVRYYYWGQGTQVTVSS	high polyreactivity
QVKLVESGGGLVQAGGSLRLSCAASGRTFASNAMGWYRQAPGKERELVADISSSGGTTYYADSVKGRFTISRDNAKNTVYLQMNSLKPEDTAVYYCAAVSSQDDPVKAWDYEYWGQGTQVTVSS	low polyreactivity
QVKLVESGGGLVQAGGSLRLSCAASGRTFLRYTMGWYRQAPGKEREFVAAISYDTSSTNYADSVKGRFTISRDNAKNNLYLQMNSLKPEDTAVYYCATGPYYGYDEFDYWGQGTQVTVSS	low polyreactivity
QVKLVESGGGLVQAGGSLRLSCAASGRTFYRNTMGWYRQAPGKERELVAAITRSGGSTYYADSVKGRFTISRDNAKNTVYLQMNRLKPEDTAVYYCARPKIHGETRSYGYGYWGQGTQVTVSS	high polyreactivity
QVKLVESGGGLVQAGGSLRLSCAASGSIFRYYAMGWYRQAPGKERELVAAMTASGGRTHYADSVKGRFTISRDNAKNTVYLQMNSLKLEDTAVYYCAADLYYAWYWKQHYDYCGQGTQVTVSS	high polyreactivity
QVKLVESGGGLVQAGGSLRLSCAASGSIFTYYAMGWYRQAPGKERELVADIRWSGGSTYYADSVKGRFTISRDNAKNTVYLQMNSLKPEDTAVYYCNARYYSYWPIYNFDYWGQGTQVTVSS	low polyreactivity
QVKLVESGGGLVQAGGSLRLSCAASGSIFYYYAMGWYREAPGKERELVAAISYGGGSTYYADSVKGRFTISRDNAKNTVYLQMNSLKPEDTAVYYCAVQEVVGWYLYDYWGHGTQVTVSS	high polyreactivity
QVKLVESGGGLVQAGGSLRLSCAASGSIISGYAMGWYRQAPGKERELVAAISSSGGRTYYADSVKGRFTISRDNAKNTVYLQMYSLKPEDTAVYYCATVWSIVRGSYYNRYDYWGQGTQVTVSS	high polyreactivity
QVKLVESGGGLVQAGGSLRLSCAASGSTFSPYVKAWYRQAPGKERELVAAIRYRGGSTYYADSVKGRFTISRDNAKNTVYLQMNSLKPEDTAVYYCATKRSHYSGGYWGQGTQVTVSS	high polyreactivity
QVKLVESGGGLVQAGGSLRLSCAAYGFIISYYAMGWYRQQPGKEREFVAVISRGGNTYYADSVKGRFTISRDNAKNTVYLQMNSLKPVDTAVYYCAASVPPYYPRQRHDGYDYWVQGTQVTVSS	low polyreactivity
QVKLVESGGGLVQAGGSLRLSCAAYGLIMGRYAMGWYRQEPGKERELVAAISGSGGSTYYADSVKGRFTISRDNAKNTVYLQMNSLKPEDTAVYYCAADRLRYRDMYYWGQGTQVTVSS	low polyreactivity
QVKLVESGGGLVQAGGSLRLSCGASGSTFGAYAMGWYRQAPGKERELVAVINSDGSTNYADSVKGRFTISRDNAKNTVYLQMNSMKPEDTAVYYCAKERTSRGGVPRMNYWGQGTQVTVSS	low polyreactivity
